Laboratory results: the RNAGym collection of RNA variant scans (doi:10.1073/pnas.2313332121)

B1: TPR t1 (parent)
chain: GACCAAUCUGCCCUCAGAGCUCGAGAACAUCUUCGGAUGCAGAGGAGGCAGGCUUCGGUGGCGCGAUAGCGCCAACGUCCUCAACCUCCAAUGCAUCCCACCACAUGAUGAUGCCUGAAGAGCCUUGGUUUUUUG

Variants of: B1
Test: polymerase ribozyme fitness, log enrichment relative to wild type (log ratio); higher = more active; in vitro selection for triplet polymerase activity
Summary of the method: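 Mutant libraries of both subunits of a heterodimeric triplet polymerase ribozyme were PCR-built, transcribed, and selected once in triplicate, with frozen incubation at −7 °C and capture of gel-excised extended constructs on streptavidin beads before RT-PCR. Illumina sequencing of input and output libraries was filtered to genotypes with ≥10 input reads and ≥1 read per output. Fitness is the logarithm of genotype enrichment over wild-type enrichment, using inverse-variance-weighted replicate averages. The logarithm is base 2.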

Variant	polymerase ribozyme fitness (log ratio)
C15U G39A G60A G117C G120A	-4.8
A16G C56A G71U C124A U130A	0.162
C15U C64U	-1.59
A16G A41U C72U U106C G120C	-1.7
C15U A18U G44U G69U	-5.2
A16G G51C	-5.21
C15U U21C C49G C62A G117A	-1.27
C15G G52A	-2.6
A16G G39U C53G	-2.41
C15G G69U C94A U109A C124A	-4.14
C15G G42A G69U C88G	-2.25
C15U C20U G42A A43C G113A	-1.99
A16U C53A A66C	-2.72
A16G C72G	-1.66
A16C A50U U54A C86G	-5.88
A16U C64U U87A U112A A118G	-2.35
A16G C49A C79U G93A G117U C123G	-2.9
A16C G44U G69U U125G	-2.18
C15U C34U	-4.93
A16U C72U	-1.94
A16U C22U C124A	-2.87

Variant	polymerase ribozyme fitness (log ratio)
C15G C76G C101A	-3.53
C15U G60A U81G C82G A119G G120U C123A	-1.78
A16G C40U A50U U55G C70U C79U U92C U112A	-7.45
C15U U38A G60U A83G	-2.98
C15G G47A C70G G117C	-3.82
C15U C73U C85G	-1.89
C15U C28U C89A C123A	-5.8
C15G G117A	-1.61
A16U A83U U112G C115A	-4.6
C15U G44C A50C G61U U96C C104U	-2.29
C15U U96C U129A	-2.88
A16G C34A	-3.22
A16G C49G G51U C86A U126C	-4.58
C15U G25U A26U G51A C99U U112G C114G G135A	-6.73
A16C G52A G60A	-2.03
A16U G23A G60A A111G G122U	-7.12
A16U C53G G93C C123A	-1.64
C15U A46G A84U U112A G113U G120U	-4.78
C15U G117U G120A	-1.56
A16C G61C C88U	-4.85
A16U A75G A83U A100U G110A	-4.47

Variant	polymerase ribozyme fitness (log ratio)
A16G C98U	-3.02
C15U C34A C123U	-3.01
C15U G58A G61U	-1.4
A16U G17U C124A	-1.9
A16G U129G	-3.64
A16U C70A A74U	-4.08
A16C G77C G120U C123U	-2.57
C15G G61A	-1.86
A16C A83C U106C C115U U125C	-2.38
C15U G135U	-2.12
A16U A95C	-2.59
C15U A37U U55G C56U	-3.11
C15U A74G A105G	-4.44
C15U C97G A121C	-4.09
A16C G77U A119G	0.8
C15U A29U	-3.13
C15U G60C G117A	0.583
A16C G45U	-4.66
A16C C101U	-2.45
C15U G36U C64A A121G	-5.18
A16U G17C C73U	-3.41

Variant	polymerase ribozyme fitness (log ratio)
A16U C28U G120U	-3.52
C15G G71U	-1.94
C15U G60A G128A	-2.6
A16C C73G U116C G135U	-3.68
A16U C88U	-1.68
C15U C56A	-1.78
C15U C56G	-2.76
C15U C53U G61U C97U	-2.21
C15U U54A U59A C80A C82G C123U	-3.3
C15U G47A G69C C85A A119U C124U	-3.68
A16G C56A C72A C86G G110A U112A	-3.93
C15U A41C G45A G71C U112A G117A G127C	-4.04
A16G A18C U54G A121G	0.49
C15U U21A A100C U109C G117U U130A	-6.66
A16G C40U A43U C72G	-3.42
C15U A50U G71A C89U	-5.22
A16G U55A G60A G93U C102U U130G	-3.39
C15G U59A G63C	-2.33
C15G G57A U132C	-3.99
C15U G93U	-2.38
